Reference: patent US20250163127A1
Where a chain is given by its changes, count along the chain named. Names may count otherwise.

B1: ICOSL-Fc N52A/N57H/Q100S (Fc fusion)
chain: DTQEKEVRAMVGSDVELSCACPEGSRFDLNDVYVYWQTSESKTVVTYHIPQASSLEHVDSRYRNRALMSPAGMLRGDFSLRLFNVTPQDEQKFHCLVLSSSLGFQEVLSVEVTLHVAANFSVPVVSAPHSPSQDELTFTCTSINGYPRPNVYWINKTDNSLLDQALQNDTVFLNMRGLYDVVSVLRIARTPSVNIGCCIENVLLQQNLTVGSQTGNDIGERDKITENPVSTGEKNAAT
B2: ICOSL-Fc N52M/N57W/Q100P (Fc fusion)
chain: B1 chain with A52M, H57W, S100P
B3: ICOSL-Fc N52R/N57Y/Q100S (Fc fusion)
chain: B1 chain with A52R, H57Y
B4: ICOSL-Fc N52Q/N57S/Q100A (Fc fusion)
chain: B1 chain with A52Q, H57S, S100A
B5: ICOSL-Fc N52S/N57M/Q100S (Fc fusion)
chain: B1 chain with A52S, H57M
B6: ICOSL-Fc N52M/N57H/Q100S (Fc fusion)
chain: B1 chain with A52M
B7: ICOSL-Fc N52S/N57Y/Q100S (Fc fusion)
chain: B1 chain with A52S, H57Y
B8: ICOSL-Fc N52S/N57L/Q100S (Fc fusion)
chain: B1 chain with A52S, H57L
B9: ICOSL-Fc N52R/N57L/Q100A (Fc fusion)
chain: B1 chain with A52R, H57L, S100A
B10: ICOSL-Fc N52Q/N57F (Fc fusion)
chain: B1 chain with A52Q, H57F, S100Q
B11: ICOSL-Fc N52A/N57Y/Q100A (Fc fusion)
chain: B1 chain with H57Y, S100A
B12: ICOSL-Fc N52S/N57H/Q100E (Fc fusion)
chain: B1 chain with A52S, S100E

molecular target: CD28 (human) (UniProt P10747); assay: flow cytometry, transfected cells

MFI | MFI ratio to WT (ΔWT) | Binder
159000 MFI | 7.1 fold | B1
168000 MFI | 7.5 fold | B2
133000 MFI | 6 fold | B3
91300 MFI | 4.1 fold | B4
134000 MFI | 6 fold | B5
115000 MFI | 5.1 fold | B6
161000 MFI | 7.2 fold | B7
108000 MFI | 4.8 fold | B8
119000 MFI | 5.3 fold | B9
131000 MFI | 5.9 fold | B10
147000 MFI | 6.6 fold | B11
117000 MFI | 5.2 fold | B12

molecular target: CTLA-4 (Homo sapiens (Human)) (UniProt P16410); assay: flow cytometry, transfected cells
Sequence (P16410 36-223): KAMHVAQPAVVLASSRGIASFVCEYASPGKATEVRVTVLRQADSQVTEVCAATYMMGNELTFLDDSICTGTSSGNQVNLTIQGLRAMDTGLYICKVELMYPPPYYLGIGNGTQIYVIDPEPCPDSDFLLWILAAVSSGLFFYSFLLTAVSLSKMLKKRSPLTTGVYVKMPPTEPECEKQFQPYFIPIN

MFI | MFI ratio to WT (ΔWT) | Binder
321000 MFI | 0.97 fold | B1
343000 MFI | 1.04 fold | B2
504000 MFI | 1.53 fold | B3
315000 MFI | 0.95 fold | B4
228000 MFI | 0.69 fold | B5
463000 MFI | 1.4 fold | B6
205000 MFI | 0.62 fold | B7
197000 MFI | 0.6 fold | B8
403000 MFI | 1.22 fold | B9
367000 MFI | 1.11 fold | B10
320000 MFI | 0.97 fold | B11
302000 MFI | 0.92 fold | B12

substrate: ICOS (Homo sapiens (Human)) (UniProt Q9Y6W8); assay: flow cytometry, transfected cells
Sequence (Q9Y6W8 21-199 limits assumed): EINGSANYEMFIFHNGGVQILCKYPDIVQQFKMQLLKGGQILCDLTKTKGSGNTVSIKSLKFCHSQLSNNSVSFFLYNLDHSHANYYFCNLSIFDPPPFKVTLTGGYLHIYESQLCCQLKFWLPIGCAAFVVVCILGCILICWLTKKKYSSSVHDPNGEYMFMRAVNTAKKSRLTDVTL

MFI | MFI ratio to WT (ΔWT) | Binder
305000 MFI | 1.44 fold | B1
322000 MFI | 1.52 fold | B2
229000 MFI | 1.08 fold | B3
263000 MFI | 1.24 fold | B4
312000 MFI | 1.47 fold | B5
266000 MFI | 1.25 fold | B6
224000 MFI | 1.06 fold | B7
269000 MFI | 1.27 fold | B8
308000 MFI | 1.45 fold | B9
192000 MFI | 0.91 fold | B10
261000 MFI | 1.23 fold | B11
258000 MFI | 1.22 fold | B12
